For the experiment, the target named is T1, PD-1 (UniProt Q15116 25-288, limits assumed).
T1 construct: whole, on cells; also called Jurkat/PD-1细胞表面的PD-1
Description: Jurkat/PD-1 + CHO/PD-L1 NFAT-luciferase reporter blocking assay. In general terms: A reporter such as luciferase makes a cellular process visible.

T1 sequence (Q15116 25-288 limits assumed): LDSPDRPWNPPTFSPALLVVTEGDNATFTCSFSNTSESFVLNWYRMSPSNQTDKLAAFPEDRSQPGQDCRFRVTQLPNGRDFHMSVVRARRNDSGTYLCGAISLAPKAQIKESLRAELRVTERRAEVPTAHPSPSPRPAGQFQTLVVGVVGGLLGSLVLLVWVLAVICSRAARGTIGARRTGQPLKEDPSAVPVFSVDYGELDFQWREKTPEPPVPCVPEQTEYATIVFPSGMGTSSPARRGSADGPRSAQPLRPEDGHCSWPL

B1: G-Ab1 (antibody, human IgG4 S228P, kappa, V domains shown)
VH: QIQLVQSGSELKKPGASVKVSCKASGYTFTNFGMNWVRQAPGQGLKWMGWISGYTREPTYAADFKGRFVISLDTSVSTAYLQISSLKAEDTAVYYCARDVFDYWGQGTLVTVSS
VL: DIVLTQSPASLAVSPGQRATITCRASESVDNYGYSFMNWFQQKPGQPPKLLIYRASNLESGVPARFSGSGSRTDFTLTINPVEADDTANYYCQQSNADPTFGQGTKLEIKR
notes: An IgG4 isotype control was used alongside it; also called 抗PD-1抗体; G-Ab1抗体
Turning to B1, the binding result is recorded as “binds”.

The values above are taken from patent publication CN115607664A (GENOR BIOPHARMA CO LTD, dated 2023).
